# Earlier results as cited in patent publication US12653792B2, “Synthetic lipids for mRNA delivery” (Trustees of Tufts College, priority 2019, dated 2026).
# Molecular target: T1, ANGPTL3 (Homo sapiens, UniProt Q9Y5C1)
# T1 sequence (Q9Y5C1 17-460): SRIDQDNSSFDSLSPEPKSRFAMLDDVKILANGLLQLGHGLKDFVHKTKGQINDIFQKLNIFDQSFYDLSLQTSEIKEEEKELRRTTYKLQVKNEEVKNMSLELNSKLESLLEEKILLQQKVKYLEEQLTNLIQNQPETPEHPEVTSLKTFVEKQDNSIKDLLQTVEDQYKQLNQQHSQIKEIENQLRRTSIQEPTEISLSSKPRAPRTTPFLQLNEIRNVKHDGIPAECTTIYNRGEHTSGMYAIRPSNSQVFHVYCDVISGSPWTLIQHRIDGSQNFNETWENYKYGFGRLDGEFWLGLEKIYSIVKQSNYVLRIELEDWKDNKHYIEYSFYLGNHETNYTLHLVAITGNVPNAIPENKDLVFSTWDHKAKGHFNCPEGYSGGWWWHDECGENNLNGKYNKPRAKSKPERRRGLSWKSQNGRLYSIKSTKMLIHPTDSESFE
# Conditions: healthy human volunteers, clinical trial
substance,measurement,value
evinacumab: ANGPTL3 targeting monoclonal antibody,LDL-C and TG levels,effective reduction in LDL-C and TG levels
